Read-outs that look alike come from different tables or passages of the source. Numbered stars: 1 amine (or outer) side, 2 acyl side, 3 side chain; on linkers, the order of the positions; unused ones are H or OH. Square brackets hold non-standard residues; d marks the D form. Side chains are listed from the residue outwards. Ends that are not written are not given here. * marks the point of attachment. C18 diacid = O=C(O)CCCCCCCCCCCCCCCCC(=O)*; γGlu = O=C(O)[C@H](CCC(=O)[*:2])N[*:1]; Orn = NCCC[C@H](N)C(=O)O; AEEA = NCCOCCOCC(=O)O
Columns and labels:
glucagon receptor [1] = target: T1, glucagon receptor (UniProt P47871 26-477, limits assumed); assay: cell-based or functional assay
T1 sequence (P47871 26-477 limits assumed): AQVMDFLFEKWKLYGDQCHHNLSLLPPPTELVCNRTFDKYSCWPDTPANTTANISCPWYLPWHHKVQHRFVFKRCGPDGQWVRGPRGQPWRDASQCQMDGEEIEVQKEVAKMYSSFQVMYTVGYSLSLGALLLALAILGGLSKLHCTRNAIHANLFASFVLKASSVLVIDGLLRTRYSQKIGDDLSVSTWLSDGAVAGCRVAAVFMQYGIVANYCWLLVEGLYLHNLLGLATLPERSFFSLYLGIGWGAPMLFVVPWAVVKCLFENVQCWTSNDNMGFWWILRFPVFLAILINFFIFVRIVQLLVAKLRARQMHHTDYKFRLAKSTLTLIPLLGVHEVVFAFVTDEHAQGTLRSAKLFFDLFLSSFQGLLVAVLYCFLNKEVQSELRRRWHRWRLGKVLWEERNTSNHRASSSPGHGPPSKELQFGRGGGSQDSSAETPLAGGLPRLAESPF

glucagon receptor [2] = target: T1, glucagon receptor; assay: cell-based or functional assay; remark: listed apart in the source

Row | Binder | Assay (I) Glucagon [EC50] (glucagon receptor [1]) [nM] | Assay (I) Glucagon [EC50] (glucagon receptor [2]) [nM]
1 | HSQGTFTSDYSKYLDSKKAQEFVK([AEEA-AEEA-γGlu-C18 diacid])WLLDT | 0.051 | –
2 | HSQGTFTSDYSKYLDSKKAQEFV[Orn]([AEEA-AEEA-γGlu-C18 diacid])WLLST | 0.036 | –
3 | H[dS]QGTFTSDYSKYLDEQAARDFVK([AEEA-AEEA-γGlu-C18 diacid])WLLNT-NH2 (N-terminus assumed; SMILES CC(C)C[C@H](NC(=O)[C@H](Cc1ccc(O)cc1)NC(=O)[C@H](CCCCN)NC(=O)[C@H](CO)NC(=O)[C@H](Cc1ccc(O)cc1)NC(=O)[C@H](CC(=O)O)NC(=O)[C@H](CO)NC(=O)[C@@H](NC(=O)[C@H](Cc1ccccc1)NC(=O)[C@@H](NC(=O)CNC(=O)[C@H](CCC(N)=O)NC(=O)[C@@H](CO)NC(=O)[C@@H](N)Cc1c[nH]cn1)[C@@H](C)O)[C@@H](C)O)C(=O)N[C@@H](CC(=O)O)C(=O)N[C@@H](CCC(=O)O)C(=O)N[C@@H](CCC(N)=O)C(=O)N[C@@H](C)C(=O)N[C@@H](C)C(=O)N[C@@H](CCCNC(=N)N)C(=O)N[C@@H](CC(=O)O)C(=O)N[C@@H](Cc1ccccc1)C(=O)N[C@H](C(=O)N[C@@H](CCCCNC(=O)COCCOCCNC(=O)COCCOCCNC(=O)CC[C@H](NC(=O)CCCCCCCCCCCCCCCCC(=O)O)C(=O)O)C(=O)N[C@@H](Cc1c[nH]c2ccccc12)C(=O)N[C@@H](CC(C)C)C(=O)N[C@@H](CC(C)C)C(=O)N[C@@H](CC(N)=O)C(=O)N[C@H](C(N)=O)[C@@H](C)O)C(C)C) | – | 0.137
4 | HSQGTFTSDYSKYLDSKKAQEFVQWLLNT [[K^17,K^18, E^21, L^27] Glucagon] | 0.003 | –
5 | HSQGTFTSDYSKYLDSKKAQEFVQWLLNK([AEEA-AEEA-γGlu-C18 diacid]) | 0.053 | –
